experiment: yeast display, Sf9 membrane polyspecificity reagent, FACS + sequencing; frameworks hold sequencing errors
Outline: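 Nanobodies from a synthetic yeast display library (Saccharomyces cerevisiae BJ5465), induced 36–48 hours with galactose, were stained 1 hour at 4 °C with 10% biotinylated, detergent-solubilized Sf9 membrane reagent, enriched on streptavidin microbeads, then FACS-sorted. Anti-HA (expression) and streptavidin (reagent binding) fluorescence set low and high (top ~1%) gates. Polyreactivity labels come from the gate of origin. Genes were colony-PCR amplified, MiSeq 2 × 250 sequenced and filtered by CDR length.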

Sequence	polyreactivity (PSR sort gate)
QVQLVESGGGLVQAGGSLRLSCAASGSTFGYYAMGWYRQAPGKERELVAAITRGGGRTYYADSVKGRFTISRDNAKNTVYLQMNSLKPEDTAVYYCAAVEPTREYYYWGQGTQVTVSS	high polyreactivity
QVQLVESGGGLVQAGGSLRLSCAASGSTFSWYAMGWYRPAPGKEMELVAAISSGGSTNYADSVKGRFTISRDNAKNTVYLQMNSLKPEDTAVFYCAAVWSRFLISYSTGWWFEYWGQGTQVTVSS	low polyreactivity
QDQHVESGGGLVQARGTLRLSCAASGFTFYHYAMGWSRQAPGTERELVAGISHRGASTYYADSVKGRFTISRDNAKNTVYLQMNSLKPEDTAVYYCNAYRPYRNHALIGDGYWGQGTQVTVSS	high polyreactivity
QVQLVESGGGLVQAGGSLRLTCAASGSIFQRNAIGWYRQAPGKERELVAAITASGGRTYYADSVKGRFTISRDNAKNTVYLQMNSLKPEDTAVYYCAARGRTYCGGRTYDYWGHGTQVTVSS	high polyreactivity
QVQLVESGVGLVHAGGSLRLSCAASGFTFKENAMGWYRQAPGKERELVAAISSTGGSTYYADSVKGRFTISRDIAKNTVYLQINRLKPEDTAVYYCAASTYWYDGDYWGQGTQVTVSS	high polyreactivity
QVQLVESGGGLVQAGGSRRLSCAASGSIFYTYLMGWYRPAPGTDRELVAAISASGVRTYYADSVKGRFTISRDNAKITVYLEMNSLKPEDTAVYYCAADRQRADYYWGQGRQVTVSS	high polyreactivity
QVQLVESGGGLVQAGGSLRLSCAASGSIFVPNAMGWYRQAPGKERELVAAISGIGGSTSYADSVKGRFTISRDNAKNTVYLQMNSLKPEDTAVYYCARADKLHTRGWGRWGSGSYSWGQGTQVTVSS	low polyreactivity
QVQLVESGGGLVQAGGSLRLSCAASGSTFPWNAMGWYRQAPGKERELVAAIRTGGGRTYYADSVKGRFTISRDNAKNTVYLQMNSLKPEDTAVYYCNAYQSSGRYRNSYGYWGQGTQVTVSS	high polyreactivity
QVHLVESGGGLVQAGGSLRLSCAASGSIFGYYTMGWYRQAPGKERELVAGIDFITTSTYYADSVKGRFTISRDNAKNTVSLQMNSQKPEDTAVYYCAAYGPLTGYDYWGQGTQVTVSS	low polyreactivity
QVQLVESGGGLVQAGGSLRLSCAASGITFVRYAMGWYRQAPGKERELVAVISRGGITNYADSVKGRFTISRDNAKNTVYLQMNSMKPEDTAVYYCAVRGRSYVRTYDYWGQGTQVTVSS	high polyreactivity
QVRLVESGGGLVQAGGSLRLSCAASGRIFLYNARGWYRQAPGKERELVAAINLSDVDTYYADSVKGRFTISRDNAKNTVYLQMNSLKPEDTAVYYCAADGIYWSTIGYYWGQGTQVTVSS	low polyreactivity
QVQLVESGGGLVQAGGSLRLSCAASGIIIQINAMGWYRPAPGKERELVAAITIDGTTNYADSVKGRFTISRDNAKNTVYLQMNILKPEDTAVYYCARRRSVYVWEPYQYDYWGQGTQVTVSS	low polyreactivity
QVQLVESGGGLVQAGGSLRLSCAASGRTFGLNVMGWYRQAPGKERELVAAISRSGGSTYYADSVKGRFTISRDNAKNTVYLQMNSLKPEDTAVYYCAAVSRYYPYGYWGQGTQVTVSS	high polyreactivity
QDLLVESGGGLVQAGGSLRLSCAASGRTFWDYTMGWYRQAPGKDRELVASITRTCRTNYADSVKGRFTISRDNAKNTVYLQMNSLKTEDTAVYYCAAEVGYQGWYPSGYKFDYWGQGTQVTVSS	high polyreactivity
QVQLVESGGGLVQAGGSLRLSCAASGRIIPKYAMGWYRQAPGKERELVAAISSSGGSTYYADSVKGRFTISRDNAKNTVYLQINSLKPEDTAVYYCNVDKATRYRYPGFDYWGQGTQVTVSS	high polyreactivity
QVQLVESGGGLVQAGGSLRLSCAASGRTFWYYTMGWYRQAPGKERELVAAISSGGTTNYADSVKGRFTISRDNAKNTVYLQMNSLKPEDTAVYYCAAEANSGDGYYWGQGTQVTVSS	high polyreactivity
QVQLVESGGGLVQAGGSLRLSCAASGRIYWNTMGWYRQAPGKERELVASISTGGGRTYYADSVKGRFTISRDNAKNTVYLQMNSLKPEDTAVYYCAVRSYGHGFDYWGQGTQVTVSS	high polyreactivity
QVQLVESGGGLVQAGGSLRLSSAASGSTFRKNAMGWYRQAPGKERELVASISISGGRTNYADSVKGRFTISRDNAKNTVYLQMNSLKPEDTAVYYCAKQVKSYRTRYTFDYWGQGTQVTVSS	high polyreactivity
QVQLVESGGGLVQAGGSLRLSCAASGSIFEIYAMGWYRQAPGKERELVASITWSGGSTYYADSVKGRFTISRDNAKNTVYLQMNSRKPEDTAVYYCATDKLYGRTVRMDYWGQGTQVTVSS	low polyreactivity
QVQLVESGGGLVQAGGSLRLSCAASGFIFSRYAMGWYRQAPGKVRELVASISWGGGSTSYADSVKGRFTISRDNAKNTVYLQMNSLKPEDTAVYYCNARVRSHRFNYWGQGTQVTVSS	high polyreactivity
QVQLVESGGGLVQAGGSLRLSCAASGFTFNSYAMGWYRQAPGKKGSWLAITSDGSTYYADSVKGRFTISRDNAKNTVYLQMNSLKPEDSAVYFCAVRTSWYGAASRYYYWGQGTKVTVSS	high polyreactivity

Sequence	polyreactivity (PSR sort gate)
QVQLVESGGGLVQAGGSLRLSCAASGRTFAGYTMGWYRQAPGKERELVAAITKSGGSTYYADSVKGRFTISRDNEKNTVYLQMNSLKPEDTAVYYCAARYIPSRYGTGCGYYSWGQGTQVTVSS	high polyreactivity
QVQLVESGGGIVQAGGSLRLSFAASGSTFNSNVMGWYRQAPGKERELVAAISRSGGNTYYADSVKGRFTISRDNAKNTVYLLMNSLKPEDTAVYYCNKAGRYPYDYWGQGTQVTVSS	high polyreactivity
QVQLVESGGGLVQAGGSLRLSCAASGSTFQFYAMRWYRQAPGKERDLVAAIRSSDDSTYYADSVKGRFTISRDNAKNTVYLQMKSLKPEDTAVYYCAAVLDFYGVWYDYWGQGTQVTVSS	high polyreactivity
QVQLVESGGGLVQAGVSLRLICAASGRIFALNTMGWYRQAPGKEREFVAAITTSGGSTYADSVKGRFTISRDNAKNTVYFQMNSLKPEYTAVYYFNKEYFHNWAPTYDYWGQGTQVTVSS	low polyreactivity
QVQLVESGGGLVQAGGSLRLSCAASGIIFGWYAMGWYRQAPGKERELVADISSDDSTYYADSVKGRFTISRDNAKNTVYLQMNSLKPEDTAVYYCAADTSYGSYWSLYYYNYYWGQGTQVTVSS	high polyreactivity
QVQLVESGGGLVQAGGSLRLSCAASGSTFTGYAMGWYRQAPGKERELVAAIDVSGATTYYADSVKGRFTISRDNAKNTVYLQMNSLKPEDTAVYYCATYATNSVAAYDYWGQGTQVTVSS	low polyreactivity
QFQLVESGGGLVQAGGSLRLSCAASGSTFGSYAMGWYRQAPAKESELVAAITASGGSTNYADSVKGRFTISRDNAKNTVYLQMNSLKPEDTAVYYCAADTTYSPLSIEYDYWGQGTQVTVSS	low polyreactivity
QVQLVESGGGLVQAGGSLRLSCDASGITQTVYAMGWYRQSPGKERELVAGIDWVGDTYADSVKGRFTISRDNAKNTVYLQMNSLKPEDTAVYYCAADNYSQGVPYDYWGQGSQVTVSS	low polyreactivity
QVQLVESGGGLVQAGGSLRLSCAASGNAMGWYRQAPGKERELVAAITYGGTTTYYADTVKGRFTISRDNAKNTVYLQMTSQKPEDTAVYYCAADNVSVATPLRYDYWGQGTQVTVSS	low polyreactivity
QVQLVESGGGLLQAGGSLRLSCAASGIIFHYNAMGWYRQAPWKQRELVAAITSTDNTNYADSVKGRFTISRDNAKNTVYLQMNSLIAEATAVYYCNASVGRDSAYDYWGQGTQVTVSS	low polyreactivity
QVQLVESGGGLVQAGGSLRLSCAASGNTFRPYAMGWYRQAPGKERELVARIRYGGGSTYYADSVKGRFTISRDNAKNTVYLQMNSLKPEDTAVYYCAVYRDQYRNFYYWGLGTQVTVSS	high polyreactivity
HVQLVESGGGLVQAGGSLRLSCAASGRIFGYNAMGWYRQAPGKERELVAAISYSGGSTYYADSVKGRFTISRDNAKNTVYLQMYSLKPEDTAVYYGAARGHYASLFGGYFHYNYWGQGPQVTVSS	high polyreactivity
QVQLVESGGGVVQAGGSLRLSCAASGSTMGYYAMGWYRPAPGKERELVATITRSGGNTYYADSVKGRFTISRDNAKNTVYLQMNSLKPDDNAVYYCAARRLYGSQRGYWGHGTQVTVSS	high polyreactivity
QVQLVESGGGVVQAGGRLRLSCAASGRILPFYAMGWYRQETGKERELVPGITTGTSTTYADSVNGRFTISRDNAKNTVYFQMHSLKPEDTAVYYCNTLVVPYTDFNTSYNVDYWGQGTQVTVSS	low polyreactivity
QVQLVESGGGLVQAGGSLRLSCAASGGIFRWYTMGWYRPAPGKERELVAAITGSGGRTFYADSVKGRFTISRDNAKNTVYLQMNSLKPEDTAVYYCAKPQAQVGGYWGYDYWGQGTQVTVSS	high polyreactivity
QVQLVESAGGLVQAGVSLRLSCAASGFTFSPNAMGWYRQPPGKERELVAAIDWSGDRTYYADSVKGRFTISRDNAKNTVYLQMNSLKPEDTAVYYCAKTNFSQSSRYNYDYWGQGTQVTVSS	low polyreactivity
QVQLVESGGGLVQAGGSLRLSCAASGFTFYLNAMGWYRQAPGKERELVAAISYSDGSTYYADSVKGRFTISRDNAKNTVYFQMNSLKPEDSAVYYCDADTTDPGGAFQLKDYWGQGTQVTVSS	high polyreactivity
QVQLVESGGGLVQAGGSLRLSCAASGLIFWYYAMGWYRQAPGKERELVAVITRSDASTYYADSVKGRFTISRDNAKNTVYVQMNSLKPEDTAVYYCAAYIRYGYSPWGYDYWGQGTQVSVSS	low polyreactivity
QVQLVVSGGGLVQAGGSLRLSCAASGFIFGYYAMGWYRQAPGNERALDAAITGRGGSTNYADSVKGRFTISRDNAKNTVYLQMNSLKPEDTAVYYCAKRWRSYSRGGDYWGQGTQVTVSS	high polyreactivity
QVQLVESAGGLVQAGGSLRLSCAASGIIFTYYAMGWYRQAPGKERELVAAISSSSGSTYYADSVKGRFTISRDNAKNTVYLQMNSLKPEDTAVYYCAAAFSQYSTSYYYWGQGTQVTVSS	high polyreactivity
